According to US20120058906A1 (published 2012):
Each block holds one binder with its values, some of them ahead of it.

Legend:
[1] = biological target: T1, rHuman EGF R/Fc Chimera, CF (R&D Systems Cat#344-ER) (human, UniProt P00533 25-645); test: ECL (MSD multi-spot), antigen spotted on plate; Fab 8 nM; blank 1188
T1 construct: Bought protein; also called epidermal growth factor receptor; Fc part of the bought chimera not given

[2] = biological target: T2, rHuman IGF-1 sR (IGF-1 sR), CF (R&D Systems Cat#391-GR) (human, UniProt P08069 31-932); test: as above
T2 construct: Bought soluble receptor; also called insulin-like growth factor-1 soluble receptor; IGF-R1

[3] = biological target: T3, rHuman HGF R/c-MET/Fc Chimera, CF (R&D Systems Cat#358-MT/CF) (human, UniProt P08581 25-932); test: as above
T3 construct: Bought protein; also called HGF R/Fc; hepatocyte growth factor receptor; Fc part of the bought chimera not given

[4] = biological target: T4, Recombinant Human DLL4 (R&D Systems Cat#1506-D4/CF) (human, UniProt Q9NR61 27-524); test: as above
T4 construct: Bought protein; also called rHuman DLL4; delta-like protein 4

[5] = biological target: T1, rHuman EGF R/Fc Chimera, CF (R&D …); test: ECL (MSD multi-spot), antigen spotted on plate; Fab 1.6 nM; blank 648
[6] = biological target: T2, rHuman IGF-1 sR (IGF-1 sR), CF (R&D …); test: as above
[7] = biological target: T3, rHuman HGF R/c-MET/Fc Chimera, CF (R&D …); test: as above
[8] = biological target: T4, Recombinant Human DLL4 (R&D Systems …); test: as above
[9] = biological target: T1, rHuman EGF R/Fc Chimera, CF (R&D …); test: ECL (MSD multi-spot), antigen spotted on plate; Fab 200 nM; blank 1659
[10] = biological target: T2, rHuman IGF-1 sR (IGF-1 sR), CF (R&D …); test: as above
[11] = biological target: T3, rHuman HGF R/c-MET/Fc Chimera, CF (R&D …); test: as above
[12] = biological target: T4, Recombinant Human DLL4 (R&D Systems …); test: as above
[13] = biological target: T1, rHuman EGF R/Fc Chimera, CF (R&D …); test: ECL (MSD multi-spot), antigen spotted on plate; Fab 40 nM; blank 1229
[14] = biological target: T2, rHuman IGF-1 sR (IGF-1 sR), CF (R&D …); test: as above
[15] = biological target: T3, rHuman HGF R/c-MET/Fc Chimera, CF (R&D …); test: as above
[16] = biological target: T4, Recombinant Human DLL4 (R&D Systems …); test: as above
[17] = biological target: T1, rHuman EGF R/Fc Chimera, CF (R&D …); test: ECL (MSD multi-spot), antigen spotted on plate; Fab 1000 nM; blank 2142
[18] = biological target: T2, rHuman IGF-1 sR (IGF-1 sR), CF (R&D …); test: as above
[19] = biological target: T3, rHuman HGF R/c-MET/Fc Chimera, CF (R&D …); test: as above
[20] = biological target: T4, Recombinant Human DLL4 (R&D Systems …); test: as above
[21] = biological target: T1, rHuman EGF R/Fc Chimera, CF (R&D …); test: ECL (MSD multi-spot), antigen spotted on plate; Fab 0.32 nM; blank 428
[22] = biological target: T2, rHuman IGF-1 sR (IGF-1 sR), CF (R&D …); test: as above
[23] = biological target: T3, rHuman HGF R/c-MET/Fc Chimera, CF (R&D …); test: as above
[24] = biological target: T4, Recombinant Human DLL4 (R&D Systems …); test: as above
[25] = biological target: T5, rHuman P-Cadherin/Fc Chimera, CF (R&D Systems Cat#861-PC) (human, UniProt P22223 108-654); test: ECL (MSD multi-spot), antigen spotted on plate; Fab 1000 nM; blank 1742
T5 construct: Bought protein; also called CDH3; Fc part of the bought chimera not given

[26] = biological target: T2, rHuman IGF-1 sR (IGF-1 sR), CF (R&D …); test: as above
[27] = biological target: T6, rHuman CD44/Fc Chimera, CF (R&D Systems Cat#3660-CD) (human, UniProt P16070 21-220); test: as above
T6 construct: Bought protein; Fc part of the bought chimera not given

[28] = biological target: T4, Recombinant Human DLL4 (R&D Systems …); test: as above
[29] = biological target: T5, rHuman P-Cadherin/Fc Chimera, CF (R&D …); test: ECL (MSD multi-spot), antigen spotted on plate; Fab 10 nM; blank 427
[30] = biological target: T2, rHuman IGF-1 sR (IGF-1 sR), CF (R&D …); test: as above
[31] = biological target: T6, rHuman CD44/Fc Chimera, CF (R&D Systems …); test: as above
[32] = biological target: T4, Recombinant Human DLL4 (R&D Systems …); test: as above
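Note: blank spot per well as comparator with Hit at signal to blank ratio of 4 or more.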

- ECL signal [1]: 1300
- ECL signal [2]: 1290
- ECL signal [3]: 1300
- ECL signal [4]: 9330
- ECL signal [5]: 862
- ECL signal [6]: 815
- ECL signal [7]: 830
- ECL signal [8]: 2130
- ECL signal [9]: 2950
- ECL signal [10]: 2600
- ECL signal [11]: 2440
- ECL signal [12]: 14800
- ECL signal [13]: 1840
- ECL signal [14]: 1900
- ECL signal [15]: 1540
- ECL signal [16]: 13600
- ECL signal [17]: 3480
- ECL signal [18]: 3350
- ECL signal [19]: 3530
- ECL signal [20]: 14300
- ECL signal [21]: 660
- ECL signal [22]: 611
- ECL signal [23]: 574
- ECL signal [24]: 646
B1: Fab VH1-46_IGHD6-6*01_IGHJ1*01_S104A & L6_IGKJ1*01 (Fab, V domains shown)
VH: QVQLVQSGAEVKKPGASVKVSCKASGYTFTSYYMHWVRQAPGQGLEWMGIINPSGGSTSYAQKFQGRVTMTRDTSTSTVYMELSSLRSEDTAVYYCAREEYSSASAEYFQHWGQGTLVTVSS
VL: not shown
notes: Expressed in E. coli as a Fab; CH1 with Flag and His tags comes from Plasmid A and the kappa CL from Plasmid C; also called IGHV1-46*01; IGHJ1*01 S104A with IGKV3-11*01

- ECL signal [25]: 3430
- ECL signal [26]: 3990
- ECL signal [27]: 3380
- ECL signal [28]: 29800
- ECL signal [29]: 705
- ECL signal [30]: 1120
- ECL signal [31]: 841
- ECL signal [32]: 5230
B2: Fab VH5-51_IGHD5-18*01>3_IGHJ4*01_G104T & V3-4_IGLJ1*01 (Fab, V domains shown)
VH: EVQLVQSGAEVKKPGESLKISCKGSGYSFTSYWIGWVRQMPGKGLEWMGIIYPGDSDTRYSPSFQGQVTISADKSISTAYLQWSSLKASDTAMYYCARRGYSYTYDYFDYWGQGTLVTVSS
VL: QTVVTQEPSFSVSPGGTVTLTCGLSSGSVSTSYYPSWYQQTPGQAPRTLIYSTNTRSSGVPDRFSGSILGNKAALTITGAQADDESDYYCVLYMGSGISYVFGTGTKVTVL
notes: Expressed in E. coli as a Fab; CH1 with Flag and His tags comes from Plasmid A and the lambda CL from Plasmid E; also called IGHV5-51*03; IGHJ4*01 G104T with IGLV8-61*01
